Experimental data taken from patent US20240026407A1, “MODIFICATION OF SAPONINS” (GLAXOSMITHKLINE BIOLOGICALS SA, priority 2020, published 2024).
Numbering of substitutions follows the chain as printed. Names and notes keep the numbering of the source. Values belong to the molecule of their own block, whether it stands above or below them.

Assays:
[1] = Example 9: screening of rhamnosidase variants for derhamnosylation of saponins in crude bark extract; format: biochemical, Quillaja saponaria; conditions: for Cumulative FIOP from WT: estimate
Procedure: Libraries of genetic variants encoding mutations in the wild type Kribbella flavida rhamnosidase (SEQ ID No. 1017) were prepared using molecular biology techniques, enzymes were prepared linked to a C-terminally located His-tag. Single monoclonal colonies were grown in 400 ul of expression medium and protein expressed. Cell pellets were lysed in 200 ul of the relevant buffer (Table 17).
Lysate was diluted appropriately in the relevant buffer to allow a lysate loading of the indicated % loading (1% loading corresponds to use of 2 ul original lysate in a 200 ul reaction).
Crude bark extract (CBE) obtained by aqueous extraction of Quillaja saponaria and containing at least 2.80 mg/ml QS-21 (by HPLC-UV) was adjusted to pH 6 by dropwise addition of 2M NaOH with stirring. The relevant concentration of the relevant glucosidase was added. The appropriate relative volume of pH 6 CBE (160 ul (for 80%) or 150 ul (for 75%)) was added to each well of the reaction plate. The reaction plate was sealed and incubated at the relevant temperature and time.
The reaction plate was quenched by adding 200 uL of MeCN (2% AcOH, 1 mg/mL hexanophenone) to each well of the plates. The quenched reaction plate was re-sealed and incubated at 20 deg C. with shaking for 10 min. The reaction plate was then centrifuged (10 min, 4 degC).
200 uL was transferred from each well of the quenched plate to the corresponding wells of a fresh 96 well plate and sealed. The plate was analysed by UV HPLC with the method described in Example 4.
Three key peaks of interest are apparent using this chromatography: Left Peak (retention time approximately 2.30-2.35 min) comprising mainly QS-17 family components; Middle Peak (retention time approximately 2.37-2.42 min) comprising mainly QS-18 family components and desglucosyl-QS-17 family components; and Right Peak (retention time approximately 2.44-2.50 min) comprising mainly QS-21 family components. Peak identity was supported by MS/MS.
Enzyme activity is calculated as the % conversion of the Left Peak present in the crude bark extract: […]

[2] = Example 10: derhamnosylation of saponins in crude bark extract (50%) using WT and engineered rhamnosidases R1 to R5; format: biochemical, Quillaja saponaria; conditions: 7 h, 50% CBE, 35 degC; for % Right Peak: starting CBE 26; for % Left Peak: starting CBE 30; for % Middle Peak: starting CBE 44
Procedure: Lyophilised powders from clarified cell lysate expressing glucosidases (from Example 8 WT glucosidase and engineered glucosidase polypeptides G1 to G5) and rhamnosidases (from Example 9 WT rhamnosidase and engineered rhamnosidase polypeptides R1 to R5) were dissolved in 200 mM sodium acetate aqueous solution at pH 5.8 to prepare the enzyme solutions at 4 fold the final reaction concentration as shown in Tables 19 and 20.
Each rhamnosidase solution was combined with an equal volume of 200 mM sodium acetate aqueous solution at pH 5.8 and separately with an equal volume of 200 mM sodium acetate aqueous solution at pH 5.8 containing 2 mg/ml glucosidase G5. This is a sufficient loading of glucosidase to effect complete hydrolysis of the relevant glucose moiety within 4 hours.
CBE was adjusted to pH of 6.0 to 6.2 with 2M sodium hydroxide and an equal volume added to the enzyme solution to prepare the reaction mix (i.e. 50% CBE concentration in reaction mix) and the concentration of glucosidase and/or rhamnosidase is shown in Tables 19 and 20. The reaction mix was heated to 35 degC for the time indicated in Tables 19 and 20, after which the reaction was quenched by addition of an equal volume of MeCN containing 2% acetic acid and shaken at room temperature for 10 mins prior to centrifugation (10 min, 4 degC) to remove particulates. Samples were analysed by UV HPLC using method of Experiment 4-4.
The change in composition of the Left, Middle and Right peaks is shown in Tables 19 and 20. The composition changes by the action of the enzymes depending on the presence or absence of the partner enzyme. The extent of reaction is proportional to the enzyme concentration and the reaction time under these conditions. The tables show data for enzyme concentrations and the reaction times providing for equivalent extents of reaction. The improvement resulting from the mutations introduced for each variant is equal to the fold change in enzyme concentration×time (i.e. fold improvement=(enzyme concentration×time) for preceding variant÷(enzyme concentration×time) for later variant). A cumulative fold improvement over the original enzyme variant is calculated by the product of the individual fold improvements.

[3] = R4 round: 35 deg C, 18 h, lysate 0.125% v/v, CBE 75% v/v, 100 mM Sodium acetate pH 5.8
[4] = rhamnosidase 0.31 mg/ml + glucosidase G5 0.5 mg/ml
[5] = rhamnosidase 0.31 mg/ml, no glucosidase
[6] = R1 round: 20 deg C, 22 h, lysate 1.25% v/v, CBE 80% v/v, 100 mM Potassium phosphate pH 6
[7] = rhamnosidase 2.5 mg/ml + glucosidase G5 0.5 mg/ml
[8] = rhamnosidase 2.5 mg/ml, no glucosidase

- Right Peak % ([1]; R4 round: 35 deg C, 18 h, lysate 0.125% v/v, CBE 75% v/v, 100 mM Sodium acetate pH 5.8, negative control 26.09): 27.00%
- Left Peak % ([1]; R4 round: 35 deg C, 18 h, lysate 0.125% v/v, CBE 75% v/v, 100 mM Sodium acetate pH 5.8, negative control 29.62): 25.03%
- Middle Peak % ([1]; R4 round: 35 deg C, 18 h, lysate 0.125% v/v, CBE 75% v/v, 100 mM Sodium acetate pH 5.8, negative control 44.29): 47.96%
- Right Peak % ([1]; R5 round: 35 deg C, 18 h, lysate 0.0625% v/v, CBE 75% v/v, 100 mM Sodium acetate pH 5.8, negative control 26.23): 26.79%
- Left Peak % ([1]; R5 round: 35 deg C, 18 h, lysate 0.0625% v/v, CBE 75% v/v, 100 mM Sodium acetate pH 5.8, negative control 28.76): 27.09%
- Middle Peak % ([1]; R5 round: 35 deg C, 18 h, lysate 0.0625% v/v, CBE 75% v/v, 100 mM Sodium acetate pH 5.8, negative control 45.00): 46.12%
- Cumulative Fold improvement in primary enzyme loading × time [2, 4]: 16
- Fold improvement in primary enzyme loading × time [2, 4]: 2.0
- Cumulative Fold improvement in primary enzyme loading × time [2, 5]: 16
- Fold improvement in primary enzyme loading × time [2, 5]: 2.0
B1: Variant R4: engineered rhamnosidase polypeptide, variant of Kribbella flavida rhamnosidase SEQ ID No. 1017 (protein)
chain: MSFPAAPARLRFEHRTDPGPVLGIGTATPRLSWQVPTAPDDYRQAGYEVEIARGDAAPEQYTVDSADQVLVPWPGTPLAARESATVRVRVRGDGDWSQWSDPATVEAGLLSADDWTARFVSPRENAGHEAPAPLIGGVIDLPPDIAQARLYATAHGIYEPTLNGTRVGDEQLAPGWTAYEQRLRYQTYDVTDLVAPGENRLELLVGNGWYRGRMSFHNGHSLYGDRLAVLAQLEVTTATGEVKVLASDGTWTTRETNVLADDLYDGQHVDLRRTLGEPGPVDVLDADLSLLVAPDGPPVRVTDVLPAKAVTTSPAGKTLVDFGQNVVGRLRLRVRGGAAGDEIVLRHAEVLEDGELCVRPLRTAKATDSFVLAGPDEVTLEPTLTFHGFRYAEITGVPDLRAEDVEAVVVGSDLRRTGWFESSHPLLDRFHENVVWGMRGNFLDVPTDCPQRDERLGWTGDIQVFSPTASFLFDTAGFLTNWLADLIAEQHKDGSVPFVVPDVLRQPSPATAAWGDAATIVPWVLYERTGDAGLLARQLPSMRAWVDRMAGLAGDDLLWVGGFQFGDWLDPTAPPDDPFRAKADPDVLATAHLARSAEVVALAAEVVGAGELAREYAELAARVRQAFAAEYTTASGRVLSDAATNYALALQWALLPTEAQRKRAGERLADLVRTAGFRISTGFVGTPLMADALADSGHPDLAYRLLLETGCPSWLYAVTMDATTVWERWDSMLPDGSINPGQMTSFNHYALGAVADWMHRRVAGLAPGDPGYRRIVVDPLFTAHLTKASARHLTPYGEAAVAWSRSGGRVRLEVTVPVGARARVAVPGESAPVEVGHGTHEWTADDVYGETPPLPADATIRQLIDHEPSWTTLAAAATRTGIVADDAELAGRLERYLDHPATELVDAVSPRGFSPSAEALHAELDSVLGR
modifications: Seq ID No. 1017 with mutations A143P, L214M, G215S, G218N, K219G, G357C, G508S, G634A, Q921H
- % conversion (Right peak/Left Peak) (−neg control) [1, 3]: 5.06%
- Cumulative FIOP from WT [1, 3]: 22.1
- % conversion (Right peak/Left Peak) ([1]; R4 round: 35 deg C, 18 h, lysate 0.125% v/v, CBE 75% v/v, 100 mM Sodium acetate pH 5.8, negative control 46.84): 51.89%
- FIOP (% area increase variant/pos control) ([1]; R4 round: 35 deg C, 18 h, lysate 0.125% v/v, CBE 75% v/v, 100 mM Sodium acetate pH 5.8, positive control R3): 2.3
- % conversion (Right peak/Left Peak) (−neg control) ([1]; R5 round: 35 deg C, 18 h, lysate 0.0625% v/v, CBE 75% v/v, 100 mM Sodium acetate pH 5.8): 2.02%
- % conversion (Right peak/Left Peak) ([1]; R5 round: 35 deg C, 18 h, lysate 0.0625% v/v, CBE 75% v/v, 100 mM Sodium acetate pH 5.8, negative control 47.70): 49.72%
- % change in Left Peak [2, 4]: −42%
- % change in Middle Peak [2, 4]: −93%
- % change in Right Peak [2, 4]: 306%
- % Right Peak [2, 4]: 79%
- % Left Peak [2, 4]: 17%
- % Middle Peak [2, 4]: 3%
- % change in Left Peak [2, 5]: −45%
- % change in Middle Peak [2, 5]: 22%
- % change in Right Peak [2, 5]: 115%
- % Right Peak [2, 5]: 30%
- % Left Peak [2, 5]: 16%
- % Middle Peak [2, 5]: 54%

- Right Peak % ([1]; R1 round: 20 deg C, 22 h, lysate 1.25% v/v, CBE 80% v/v, 100 mM Potassium phosphate pH 6, negative control 26.35): 27.08%
- Left Peak % ([1]; R1 round: 20 deg C, 22 h, lysate 1.25% v/v, CBE 80% v/v, 100 mM Potassium phosphate pH 6, negative control 29.36): 27.04%
- Middle Peak % ([1]; R1 round: 20 deg C, 22 h, lysate 1.25% v/v, CBE 80% v/v, 100 mM Potassium phosphate pH 6, negative control 44.30): 45.89%
- Cumulative Fold improvement in primary enzyme loading × time [2, 7]: 2
- Fold improvement in primary enzyme loading × time [2, 7]: 2.0
- Cumulative Fold improvement in primary enzyme loading × time [2, 8]: 2
- Fold improvement in primary enzyme loading × time [2, 8]: 2.0
B2: Variant R1: engineered rhamnosidase polypeptide, variant of Kribbella flavida rhamnosidase SEQ ID No. 1017 (protein)
chain: B1 chain with P143A, M214L, S215G, N218G, C357G, S508G, A634G, H921Q
modifications: Seq ID No. 1017 with mutation K219G
- % conversion (Right peak/Left Peak) (−neg control) [1, 6]: 2.74%
- Cumulative FIOP from WT [1, 6]: 1.7
- % conversion (Right peak/Left Peak) ([1]; R1 round: 20 deg C, 22 h, lysate 1.25% v/v, CBE 80% v/v, 100 mM Potassium phosphate pH 6, negative control 47.30): 50.04%
- FIOP (% area increase variant/pos control) ([1]; R1 round: 20 deg C, 22 h, lysate 1.25% v/v, CBE 80% v/v, 100 mM Potassium phosphate pH 6, positive control WT): 1.7
- % change in Left Peak [2, 7]: −40%
- % change in Middle Peak [2, 7]: −96%
- % change in Right Peak [2, 7]: 309%
- % Right Peak [2, 7]: 80%
- % Left Peak [2, 7]: 18%
- % Middle Peak [2, 7]: 2%
- % change in Left Peak [2, 8]: −35%
- % change in Middle Peak [2, 8]: 17%
- % change in Right Peak [2, 8]: 112%
- % Right Peak [2, 8]: 29%
- % Left Peak [2, 8]: 19%
- % Middle Peak [2, 8]: 51%
